In a protein production outcome set (Wang et al. 2014) one finds protein production data, which are given here for 15 sequences.

The data set is described as follows: label from the status in PepcDB records.
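Further: failed if final PepcDB status was selected cloned or expressed and not failed if soluble or beyond.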

Consider “MDFNDSAQAIILNVGGEKNINSLIHCSTRLRFTLNDFAKADLEKLKTVDGVLGAVIAGGQCQVIIGNDVVEMFDAVQALLGNSTQQNTARGPKQSWGKVVLDFIIGVFQPLVPAIAGGGILKAVLMLLAMFGWISDKSQTYQILNLVGGAPLYLLPILVAITTAQKLKVNPLVAVSTVGVLILPDLVAMLTKGTTLFGLHVTNVTYSSQVFPAILCVLFYALMERFFTKYSPKPIRIFFVPMMSMLITAPITLLFLGPLGYVVGEGFVSVILFLNTHLGWVATALLAGVLPFMVATGMHKPMIPYVVSTFSTVGKESLYLPASLAHNISESGTCFAITLRTKDTKLRAVALSAGISALFGITEPALYGVTLQHKRALISVITGGVIGGAYVGIAGLSGFTIVGPGLASLPMFVDKSNPANLIHALIGFGISFVVSFVIGLIIWKNDEEISSASDTGEATTTVVAEDLMAPVAGKILSLADVPDDVFSQGLIGQGIAVEPSEGSLIAPTDGTIEMVYETKHALGMRTDNGAELLFHIGLDTVQLNGKYFESHVQVGQHVQAGELLETFDVAKIKAAGYNPITMMVVTNQDSYTVAVDESNETLDNQSVMNIAKLGV”, for which the protein production entry was “failed”.

As for “MDFNPIDLILHLDTYLAMLVSNYGVWIYAILFLVIFCETGLVVTPFLPGDSLLFIAGAICATGGMDPWLLGGLLMVAAITGDSTNYVIGRTLGKRLFSNPDSKVFRRDYLDRTHEFYERHGGKTVTLARFLPIVRTFAPFVAGMAKMHYPRFVMFSVVGTVAWVGGLVTLGYFFGNVPFIKKNLSLLVIGIILLSLLPMILGFIRHRLQASAAKQAKAQSD”, the protein production entry is listed as “failed”. In the case of “MDFPCLWLGLLLPLVAALDFNYHRQEGMEAFLKTVAQNYSSVTHLHSIGKSVKGRNLWVLVVGRFPKEHRIGIPEFKYVANMHGDETVGRELLLHLIDYLVTSDGKDPEITNLINSTRIHIMPSMNPDGFEAVKKPDCYYSIGRENYNQYDLNRNFPDAFEYNNVSRQPETVAVMKWLKTETFVLSANLHGGALVASYPFDNGVQATGALYSRSLTPDDDVFQYLAHTYASRNPNMKKGDECKNKMNFPNGVTNGYSWYPLQGGMQDYNYIWAQCFEITLELSCCKYPREEKLPSFWNNNKASLIEYIKQVHLGVKGQVFDQNGNPLPNVIVEVQDRKHICPYRTNKYGEYYLLLLPGSYIINVTVPGHDPHITKVIIPEKSQNFSALKKDILLPFQGQLDSIPVSNPSCPMIPLYRNLPDHSAATKPSLFLFLVSLLHIFFK”, the protein production result is “not failed”. To “MDGEILRDPTRRFVLQSGAAVGGGLLLSFTMSSEGQAAGDTKVNAYVRIASDGKVTIASKVPEVGQGIKTALPMLIAEELDVDWSAVTVEQAIADTKIYGRQVAGGSMATTLEYDGLRRVGATVRALLIAAAAARWNVPADSLKTEPGFVVDAAGKRRASYGELAQAAAALTPPDPKSLTLKDPKAFRIIGKSHKSQNLDAIVTGQPTYGIDVRLPGMLFAAFAKAPVYGAKVASVDLALAKAVKGVRDAFIIEGGTNLQGLLPGVAVVADSWWAARKGREALQIQWAEHPTASQSTVGFAAKAAELAAAPPHRNLHNDGDVEAALKGAAKTVSAAYSYPFIAHAALEPQNCTAHVKDGKVEIWAPTQNPESGRALVARALNVDPSAITIHLIRGGGGFGRRLMNDYMVEAAAIAAKVNAPVQLIWTREDDMQHDFYRPGGWHNLTAGLDAKGGLTAWKNHFITFGEGETFNTAAAMNATQFPCRAVANYRHDVSVMPLGFPTGFLRAPGNNAFGFVIQSFTDELALAAGKDPVAFRRELLGEPRLLGEPGKGDSFHTGRMRGVLDLVAEMSGWGRKVPKGTGLGVACHYSHLGYVAVVMQVTVKDGAVKVDKVWAAADVGRQIVNPSGADQQMQGSILDAIGSTLYQSITFENGAATNSNFGDFPLLRMADAPPVEVRYKLSDNNPTGLGEPAYPPAPAALCNAIFAATGKRIRSLPIGDQLA” belongs “failed”; to “MDGHSKNHCSPVGRYFPMPLDRRFLPGWLAFLALLAICVFPLMAKAAGVPALVGRVNDYAGMISPQARSIIDQKLKALEAEDGTQVAVLTVPSLDGQPIEEFSIKVAEAWKIGQKGRDNGILFIVSKNDRAMRIEVGYGLEGRLTDLQAGRITRDVIKPAFKSGDYDKGFIDGVDAIVASVKGEYKAPKRKNDDGAPSPFLIFIILFVLFVASRFMRFFGGGGGPFGFGGPGGGFFPGGGFGGGGGSSDDGGFSGGGGDFGGGGASDNW”, “failed”; to “MDGRRMVQGLLTASLLTSIGGDLEVLASRMDLQFQRPVYTGETLVCELTVVSADPHTDGGVALVGDVAVRRVNRDDNSGQADTAAPLEHHHHHH”, “failed”. Then “MDHAAVLALFDRDMREGARPDGPGARIERVPGVVRQVASEHGWNGVVWSGLDEASADAAIAEQQRYFAGLGREFEWKLYGHDLPEDLGRRLRAAGFTAAPEETLMVAEVADLTLDVEPPDGVRIVPVTDRAGVDLVADVHEKAFGTDSTRMRHQLLAQVTDDPDAVVAVVALAGDEPVSAARMELVPGTRFAGLWGGGTVEGERGRGIYRALVAHRAKVAADRGYRYVQVDATSQSRPVLARLGFEPLTTTTPYVSP”, with “not failed”; and “MDHDKTGCQSPPEGPKLCTNNCGFFGSAATMNMCSKCHKDMLFQQEQGAKFASAVSGTSSSSNIIKETFTAALVDIETKSVEPMTVSVQPSSVQVVAEVVAPEEAAKPKGPSRCTTCNKRVGLTGFKCRCGSLFCGTHRYADVHDCSFNYHAAAQEAIAKANPVVKAEKLDKI”, with “failed”. Regarding “MDIDLSAFHFLRPWWLLAVPLAALLWWARRGERGAPGRDLRIAPALLPYLVLRTPGSRGPRPIDALALFLALGGVAAAGPAWQRDEPAYLDNVAPLIVALDLSASMDGADVPPTRLEAARRVLRDLAARRAAARTGLIAYAGSSHLVLPPTDDAALLDLFAQALATGLIERPGRDADGAIALAAQALAAERAGGTLLILTDGADRARMDAVRRQAQAARDMQVLVMAVGVNGIDTQALQELARAAGAALGSLTGGPDDQDWIALHAQAHFRAVQDAQSGPVHWKDAGYWLCWPLALLALLAVRRGWSVAWSAGVLVVAMAGMPQPARADALADAFLTADQQGRRAFEHGRYDAAARHFHDPNWKGRAAYQAGDYRAALAAFSTLPSAEGYFYVGNTQTRLHRYDAALAAYDRALALRPGWQPAVVNRGIVARLLAAMAQTQQDQPAEPPDRTIADRSAQAGKMSQAPVAQAGSEEAWLRNLTLSPARFLRSKFAVEDAAAGTRP”, the protein production result is recorded as “failed”.

“MDIEDLQTFVAVADAGGVSAAARRLGISKSIVSRRLLRVEAELGVQLLARTTRGAALTEAGITFRDHAARASAEIDTAKETILPTGELRGRLRVAMPLTFGPTHFAPVLADMARQHPQLHIHTSYSDRFVDLIAEGFDCAIRGAYLQDSNLIAKRVGPIHGKLVASPDYIKAHGSPGTLDELVTHQALMQGTEAWQFMDGDKIVTVQPQGRFKADSATALAAAAAAGLGIAWLPDCITYGYVASGALVPIMTRYPVPPGAAYVVRPPGQHPTRKVRALTEMLTEYFKRNPDVWGLDR”: the protein production entry was “failed”. Then “MDIKEIDQSSVITPDGQRISFILITPVNMSVLSDEVVAGRISALANILTSIENLQILCLNASQSYEKNKEHLAAQMKTETNEVLAELDRKDIEYLDDIRISMATGREFAFAVRFKKNIGRPQQEQTLKRLLLILLEAGFTARIAEEQELKGILAIYFAQDIYNDYWPDFDGEEILSPAEAKQEKSFLELIAPSIIDFRRQRYYVCGNTQRTVWAVRGYPTTTKDQTIFRELGEKDGVTLHIYTRPVGSYETNKILERAERRNRHMLNNSSRIKEKVEAESNMQDVQLLIENMHRSKEPFLHCAVFIEMAAGNDKALELLQGDVAAILNRHKILYDKLFLQQKEGMISAMPTGQNLFENQFERVLPASSVANMFPFSYSGKTDPQGMYIGRDANGSNIIVNFDQRGQDKTNGHIIILGNSGEGKSFLLKILSCIFRQSRKNLYILDPENEYKELTEALGGTYMDMMTGKYIINPLEPRLWNQEPVSELESPDTPKAFFKPLRINQHIAFLRDFFSAYKPFPTEQLDTLEIMLELLYKEFHITEETDYSRLRSSDYPILTDLYKLMTRELENYEEKAETGLVVYRKETLRELCLGLHGICTGAESVYFNGYTNIPNAKHIDFGVKDMLSTNQSLSNAMYFNILSFMSHKFLTEGDTNICCDELHELLKNRIAISYLLSFIKRGRKRGSNVILASQNVSDFFLPEIVEYTKPLLSIPTHRFLFYPGSCDTEEYKRVLGVSDSEYRVIQNPNRGHCLYSCGNERYHLHVIAPKYKKALFGTAGGALEHHHHHH”, with “failed”; and “MDIKNSEYRFSPLVIGLHWLTVILIIAVYASMELRGLAPKGALRDAMKSLHYLLGLSVLVIVVIRIGVRIQAGVKPAIQPPMPRWQATLADGMHYALYSFMLAMPLLGWLTLSAAGKPIVLFGLPVPSLIGTDVALSRQLKDVHEALATLGYVLIGLHAMAALLHHYVMRDNTVVRMLPGRRP”, with “not failed”; and “MDIPQAIKYYEQACDLDGDYGCFNAAYFYEYGIGTQKDITQAKTLAKQLREKINLSNINLDKKVSERIIGSVYSNKLEAYRDLSFRPHFIQGLSFYFYAPQSDERKLLSRIGFDSSHLARIAILWAREGDPEVAYQTAKLVSTLYFNNETKTIDIAEALKWLRISAEKGDADSQTLLGFLYEHAGLGLQPDGEKARKWYEMAAQQGNGEALYTLGRMYYSGVLVNVDYDKALYFFKKAYEKKLQEAADYLAQMYFNGQSVDVDCQQSWHYYDNSYIKKMTQRDYLDYCEKDRKRRNDFNQQLPELTLEKYAGLFGRIDNIPLCQIGFVVNTNKLIHVANLRVELILKNDAGVSDERMVAFPPLGLNTLGAEQGMGDSFKSMGYLLMKNGDLCDYHKLTFTVKSATATINGKKVDLLKTDNLHIIQNR”, with “failed”. As to “MDIRRIVLYMALALIGLSLWNAWQIDYPAKQPVEEKTASQLTSDGHLLPQIIPSNAEQPVTLKAEEKASSGKQLIQVKTDVLDVDIDLKNGDIVKGLLLDYPLSVEDKNKPFPLLQNQASQRYVANSSLFVLDGQTPQSLDFDFTSEKEYYELKPDQNQLIVTLNGKSEDGLDVKKEFVFTKGSYLIEVNYKIANTGNSLWKGYFNTQLLRSSPKEDKSSIFHIGSYTGASFSNPGKNRYQKVSFSDMSKSNLDVDAKGGWIAMQQHYFLSAWVPNADSENKFYTLATDKDYTIGAVSQPITVKPKEDKIVGSKLYIGPEITSVLKGISPSLDLTVDYGILWFLSSLLFSLMKAIYTVVGNWGWSIVLVTVLIKLAFYRLSATSYKSMASMRKLQPKLQALRERYGDDKAKISQATMELYKQEKVNPLGGCLPILIQIPVFIALYWVLLESVELRQAPFIFWINDLASADPYHVLPLIMGATMLIQQKLNPAPADPMQAKVMMFLPILFTGLFWNFPSGLVLYWIVNNTLSILQQWYITRKYSDEKPAKKVVATAK”, the protein production result is on record as “failed”.

As to “MDISGHPKTRTRTIFDEVDEPVWFCCVLPIWVGEEMASGWGITGNKGRCYDFWMDFSECMSHCREPKDCTLLREDYLECLHHSKEFQRRNRIYKEEQRKLRAASRKGEEAGDGTHNHH”, the protein production entry is “failed”.
